# Data reported in publication PMC6092110, “Binding of Dickkopf-3 to CXCR7 Enhances Vascular Progenitor Cell Migration and Degradable Graft Regeneration” (Circulation Research, 2018).
# B1: Dkk3-AP (Dkk3 conjugated with alkaline phosphatase) (ligand)
# chain: not shown
# Target: T1, CXCR7 (HA tagged) overexpressed in HEK 293T cells (UniProt P56485 1-362)
# T1 construct: CXCR7 (C-X-C chemokine receptor type 7), HA tagged, overexpressed from an expression plasmid in HEK 293T cells; source: HEK 293T, transfected, in lysate
# T1 sequence (P56485 whole entry): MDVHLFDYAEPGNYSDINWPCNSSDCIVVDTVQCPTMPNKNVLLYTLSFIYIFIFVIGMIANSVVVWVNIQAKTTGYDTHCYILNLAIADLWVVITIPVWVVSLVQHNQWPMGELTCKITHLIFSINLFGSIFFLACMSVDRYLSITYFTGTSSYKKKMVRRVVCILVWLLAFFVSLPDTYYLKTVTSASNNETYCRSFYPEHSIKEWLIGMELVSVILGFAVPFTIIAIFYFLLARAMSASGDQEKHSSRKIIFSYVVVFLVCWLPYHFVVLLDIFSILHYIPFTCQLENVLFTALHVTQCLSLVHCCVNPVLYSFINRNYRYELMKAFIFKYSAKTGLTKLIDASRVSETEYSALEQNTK
# Experiment: ELISA; saturation binding: lysates of HEK 293T cells overexpressing the receptor loaded onto high-affinity-binding ELISA plates coated with anti-HA antibody; serial dilutions of AP-conjugated ligand (or AP alone); AP activity read; Scatchard analysis; n=3
# Conditions: one partner purified
binder,measurement,value
B1,Kd,14.1 nM
